What all share (assay): affinity purification with mass spectrometry; tandem affinity purification of TAP-tagged Epl1 or Ada2 from lysates of TRA1 or tra1 Q3 strains (260 mg or 170 mg protein): IgG beads 2 h at 4°, IPP150 (10 mM Tris-HCl pH 8.0, 150 mM NaCl), TEV cleavage, calmodulin beads, EGTA elution; SDS-PAGE, Coomassie Brilliant Blue; bands identified by MALDI mass spectrometry or predicted from mass; band intensity by ImageJ

Experiment [1] concerns the target TAP-tagged Ada2 (S. cerevisiae) (UniProt Q02336).
Experiment [2] concerns the target TAP-tagged Epl1 (S. cerevisiae) (UniProt P43572).
For experiment [3], the target named is T1, TAP-tagged Ada2 (S. cerevisiae, UniProt Q02336 1-434).
T1 construct: Ada2, SAGA component, S. cerevisiae; TAP-tagged ADA2; Held on IgG beads, released with TEV protease, then held on calmodulin beads, so part of the TAP tag is cut off during the purification; also called TAP-Ada2; TAP-ADA2; source: S. cerevisiae strain with TAP-tagged ADA2 (bought: Open Biosystems YSC1178-202230655; crossed with CY6582 for the tra1 Q3 strain CY7042), in lysate of cells ground in …
T1 sequence (looked up): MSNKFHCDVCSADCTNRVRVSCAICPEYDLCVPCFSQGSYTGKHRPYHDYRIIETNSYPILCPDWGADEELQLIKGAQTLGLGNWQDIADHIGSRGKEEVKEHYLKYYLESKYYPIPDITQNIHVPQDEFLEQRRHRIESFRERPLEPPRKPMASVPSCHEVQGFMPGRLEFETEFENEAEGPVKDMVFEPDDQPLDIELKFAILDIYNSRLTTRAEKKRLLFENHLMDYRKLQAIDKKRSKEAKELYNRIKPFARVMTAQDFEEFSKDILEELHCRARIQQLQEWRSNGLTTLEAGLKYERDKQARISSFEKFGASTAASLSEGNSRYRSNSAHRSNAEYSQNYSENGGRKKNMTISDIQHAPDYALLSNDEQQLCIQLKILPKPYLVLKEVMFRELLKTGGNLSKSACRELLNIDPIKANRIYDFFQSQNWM
The settings on record: partners not purified.

TAP-tagged Epl1 (S. cerevisiae), sequence (P43572 whole entry): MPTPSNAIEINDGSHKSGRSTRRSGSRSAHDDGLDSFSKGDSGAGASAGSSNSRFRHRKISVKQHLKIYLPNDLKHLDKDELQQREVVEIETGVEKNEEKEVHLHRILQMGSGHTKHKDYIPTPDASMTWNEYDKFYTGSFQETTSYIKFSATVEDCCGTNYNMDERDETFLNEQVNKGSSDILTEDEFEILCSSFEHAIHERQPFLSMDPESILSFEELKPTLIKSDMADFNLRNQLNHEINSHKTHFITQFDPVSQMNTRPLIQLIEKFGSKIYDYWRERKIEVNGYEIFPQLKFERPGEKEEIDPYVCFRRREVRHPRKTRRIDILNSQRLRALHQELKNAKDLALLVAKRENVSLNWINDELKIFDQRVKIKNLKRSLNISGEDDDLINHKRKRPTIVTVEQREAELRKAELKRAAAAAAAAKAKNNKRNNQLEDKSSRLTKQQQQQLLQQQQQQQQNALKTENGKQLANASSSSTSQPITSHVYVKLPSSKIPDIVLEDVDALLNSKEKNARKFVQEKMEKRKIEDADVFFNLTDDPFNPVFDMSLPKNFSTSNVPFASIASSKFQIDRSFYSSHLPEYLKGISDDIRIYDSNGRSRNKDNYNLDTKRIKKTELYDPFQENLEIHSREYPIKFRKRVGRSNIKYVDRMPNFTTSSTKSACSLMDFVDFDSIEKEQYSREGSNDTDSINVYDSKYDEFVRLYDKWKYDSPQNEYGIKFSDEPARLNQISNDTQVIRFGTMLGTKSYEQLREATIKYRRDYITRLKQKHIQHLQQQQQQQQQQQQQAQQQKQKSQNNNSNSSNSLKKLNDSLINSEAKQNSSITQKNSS

As to “Tra1 Q3 (R3389Q, R3390Q, R3456Q), P38811 1-3744”, the fold decrease against wild-type Tra1 in experiment [1] is 6.5 fold; in experiment [2] it was 6.7 fold.

B1: full length Spt20 (natural protein, UniProt P50875 1-604, looked up)
chain: MSANSPTGNDPHVFGIPVNATPSNMGSPGSPVNVPPPMNPAVANVNHPVMRTNSNSNANEGTRTLTREQIQQLQQRQRLLLQQRLLEQQRKQQALQNYEAQFYQMLMTLNKRPKRLYNFVEDADSILKKYEQYLHSFEFHIYENNYKICAPANSRLQQQQKQPELTSDGLILTKNNETLKEFLEYVARGRIPDAIMEVLRDCNIQFYEGNLILQVYDHTNTVDVTPKENKPNLNSSSSPSNNNSTQDNSKIQQPSEPNSGVANTGANTANKKASFKRPRVYRTLLKPNDLTTYYDMMSYADNARFSDSIYQQFESEILTLTKRNLSLSVPLNPYEHRDMLEETAFSEPHWDSEKKSFIHEHRAESTREGTKGVVGHIEERDEFPQHSSNYEQLMLIMNERTTTITNSTFAVSLTKNAMEIASSSSNGVRGASSSTSNSASNTRNNSLANGNQVALAAAAAAAAVGSTMGNDNNQFSRLKFIEQWRINKEKRKQQALSANINPTPFNARISMTAPLTPQQQLLQRQQQALEQQQNGGAMKNANKRSGNNATSNNNNNNNNLDKPKVKRPRKNAKKSESGTPAPKKKRMTKKKQSASSTPSSTTMS
notes: Spt20, S. cerevisiae, full length band in the TAP-Ada2 purification; source: endogenous, S. cerevisiae lysate
B1: in experiment [3], the “fold decrease of full length Spt20 in the TAP-Ada2 pull down, tra1 Q3 strain against the wild-type strain” value was 2.1 fold.

The values are drawn from PMC5982823, “The Pseudokinase Domain of Saccharomyces cerevisiae Tra1 Is Required for Nuclear Localization and Incorporation into the SAGA and NuA4 Complexes” (G3: Genes|Genomes|Genetics, 2018).
